Experimental data as given in paper PMC11957415, “Size-exclusion chromatography–small-angle neutron scattering system optimized for an instrument with medium neutron flux” (Journal of Applied Crystallography, 2025).

How the values were obtained:
[1] = target: T1, hydrogenated KaiC, phosphorylation mimic S431D (Synechococcus elongatus PCC 7942, UniProt Q79PF4 1-519, S431D); assay: SEC; KaiB and KaiC mixed at a molar ratio of 12:6 and incubated at 303 K for 48 h; Superdex 200 Increase 10/300 GL, 0.5 mL/min; 98% D2O buffer with 50 mM sodium phosphate pH 7.8, 150 mM NaCl, 5 mM MgCl2, 0.5 mM EDTA, 1 mM DTT, 3 mM ATP, 50 mM glutamic acid, 50 mM arginine; conditions: both partners purified
T1 construct: Clock protein KaiC from Synechococcus elongatus PCC 7942, phosphorylation site S431 substituted with aspartate; KaiB and KaiC were mixed at a molar ratio of 12:6, and M from I(0) of hC alone is 334 ± 11 kDa; The buffer contained 3 mM ATP and 5 mM MgCl2; also called hC; h-KaiC; source: expressed and purified as previously described
T1 sequence (looked up): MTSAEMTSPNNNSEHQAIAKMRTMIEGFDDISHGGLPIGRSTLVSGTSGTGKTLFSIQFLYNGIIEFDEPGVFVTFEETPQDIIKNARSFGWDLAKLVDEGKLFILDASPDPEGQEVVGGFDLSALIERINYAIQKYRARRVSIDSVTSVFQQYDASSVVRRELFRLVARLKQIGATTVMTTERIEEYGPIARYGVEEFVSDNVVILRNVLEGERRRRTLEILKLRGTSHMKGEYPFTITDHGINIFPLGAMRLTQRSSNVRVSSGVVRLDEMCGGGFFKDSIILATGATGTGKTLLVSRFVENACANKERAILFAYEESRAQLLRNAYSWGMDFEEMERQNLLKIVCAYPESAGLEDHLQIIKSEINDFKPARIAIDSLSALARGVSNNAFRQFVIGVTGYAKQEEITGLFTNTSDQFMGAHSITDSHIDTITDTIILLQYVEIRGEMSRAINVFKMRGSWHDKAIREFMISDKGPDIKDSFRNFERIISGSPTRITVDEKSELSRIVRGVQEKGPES

[2] = target: T1, hydrogenated KaiC, phosphorylation …; assay: SEC-SANS; BC complex fraction from SEC stored in the SANS cell (stopping mode), 298 K, 98% D2O clock protein buffer; compared with hC alone; conditions: both partners purified

Binder | binding result [1] | binding result [2]
71% deuterated KaiB (natural protein, Synechococcus elongatus PCC 7942, UniProt Q79PF5 1-102, looked up, partially deuterated; degree of deuteration 71% (MALDI-TOF mass spectrometry), Clock protein KaiB from Synechococcus elongatus PCC 7942; also called 71dB; 71d-KaiB; source: bacterial cells grown in M9 minimal H2O/D2O mixture media with hydrogenated and deuterated glucose, purified) MSPRKTYILKLYVAGNTPNSVRALKTLKNILEVEFQGVYALKVIDVLKNPQLAEEDKILATPTLAKVLPLPVRRIIGDLSDREKVLIGLDLLYGELQDSDDF | binds | 
hydrogenated KaiB (natural protein, Synechococcus elongatus PCC 7942, UniProt Q79PF5 1-102, looked up, Clock protein KaiB from Synechococcus elongatus PCC 7942; also called hB; h-KaiB; source: expressed and purified as previously described) MSPRKTYILKLYVAGNTPNSVRALKTLKNILEVEFQGVYALKVIDVLKNPQLAEEDKILATPTLAKVLPLPVRRIIGDLSDREKVLIGLDLLYGELQDSDDF |  | binds
